Assay results reported in US20220323445A1, “REDUCING IMMUNOGENICITY TO PEGLOTICASE” (Horizon Therapeutics Ireland DAC, priority 2020, published 2022).

System: serum uric acid (sUA)
Experiment: Serum uric acid (sUA) levels and sUA responders, open-label study of pegloticase with MTX (NCT03635957)
Format: in vivo, human
Description: The primary objective is to estimate the response rate during Month 6 (Weeks 20, 22, and 24), as measured by the sustained normalization of serum uric acid (SUA) to <6 mg/dL for at least 80% of the time during Month 6 in subjects receiving KXX with MTX.
The primary efficacy outcome endpoint is the sustained normalization of SUA to <6 mg/dL for at least 80% of the time during month 6 (weeks 20, 22, and 24) in subjects receiving KXX with MTX. This is slightly below the urate solubility threshold and this threshold has been the accepted standard for nearly all modern gout trials. Participants who achieve this endpoint were classified as “responders.” Serum uric acid (SUA) responders may also be defined as participants achieving and maintaining SUA <6 mg/dL for at least 80% of the time during Month 6 (Weeks 20, 22, and 24).
Blood samples may be collected prior to each pegloticase infusion for measurement of SUA levels using the Beckman Coulter AU System Uric Acid procedure. Participants were declared “non-responders” if there were SUA measures >6 mg/dL at 2 consecutive study visits beginning with the week 2 visit. […] If the SUA goal is not maintained before or at the 12-week mark, it was assumed that the participant had developed clinically relevant anti-pegloticase antibody and they received no further infusions. This assumption and subsequent discontinuation of pegloticase was consistent with the protocol of large phase III randomized controlled trials and the product label. A formal stopping rule was 2 occasions of SUA levels of greater than 6 mg/dL.
Clinical Chemistry—Blood samples were collected prior to each pegloticase infusion for measurement of SUA levels (primary efficacy parameter) using the Beckman Coulter AU System Uric Acid procedure. In this procedure uric acid is converted to hydrogen peroxide. Hydrogen peroxide reacts with reagent to produce a chromophore which is read bichromatically at 660/800 nm. The amount of dye formed is proportional to the uric acid concentration in the sample.
Serum samples for measurement of SUA levels were collected at the Screening Visit, the Week −4 Visit (prior to the first dose of MTX), and the Week −2 Visit during the MTX Run-in Period; within 48 hours prior to each pegloticase infusion and after the end of each pegloticase infusion prior to discharge from the site during the Pegloticase+IMM Period; at the non-infusion Week 52/End of Study/Early Termination Visits and at the Post Treatment 3 and 6 Month Follow-up Visits. Additional serum samples for SUA levels were collected at optional non-infusion (Frequent Sampling) Visits at Weeks 1 and 7. […] Subjects with SUA level >6 mg/dL at 2 consecutive visits beginning at Week 2 visit discontinued treatment, completed the End of Pegloticase Infusion Visit procedures within 2 weeks and continued the subject visits according to the protocol (without treatment).
Efficacy analyses were performed using the modified intention-to-treat (mITT) population, defined as all enrolled subjects who received ≥1 dose of pegloticase. The proportion of Month 6 responders was summarized, along with a 95% confidence interval for the proportion. The proportion of Month 3 and overall (Months 3 and 6 combined) responders was analyzed similarly.
A subject was declared a non-responder if the subject had SUA level >6 mg/dL at 2 consecutive study visits beginning with the Week 2 Visit. In addition, a subject who withdraws from study treatment for any reason after the first dose of pegloticase in the KXX+MTX Period and prior to Month 6 (for the primary endpoint) or Month 3 (for the secondary endpoint) was considered a non-responder if SUA values were not collected at the planned time points.
Patients were administered oral MTX (15 mg/week) and folate (1 mg/day) 4 weeks prior to the first pegloticase infusion (Day 1) and throughout the pegloticase treatment period. […]

[1] = Week 44 - Pre-Infusion, mITT, n=3
[2] = Week 46 - Pre-Infusion, Month 6 sUA Responders
[3] = Week 46 - Pre-Infusion, mITT, n=2
[4] = Week 48 - Post-Infusion, Month 6 sUA Responders
[5] = Week 48 - Post-Infusion, mITT, n=3
[6] = Week 48 - Pre-Infusion, Month 6 sUA Responders
[7] = Week 48 - Pre-Infusion, mITT, n=2
[8] = Week 50 - Post-Infusion, Month 6 sUA Responders
[9] = Week 50 - Post-Infusion, mITT, n=3
[10] = Week 50 - Pre-Infusion, Month 6 sUA Responders
[11] = Week 50 - Pre-Infusion, mITT, n=2
[12] = Week 52/ET, Month 6 sUA Responders

B1: pegloticase (protein)
chain: TYKKNDEVEFVRTGYGKDMIKVLHIQRDGKYHSIKEVATTVQLTLSSKKDYLHGDNSDVIPTDTIKNTVNVLAKFKGIKSIETFAVTICEHFLSSFKHVIRAQVYVEEVPWKRFEKNGVKHVHAFIYTPTGTHFCEVEQIRNGPPVIHSGIKDLKVLKTTQSGFEGFIKDQFTTLPEVKDRCFATQVYCKWRYHQGRDVDFEATWDTVRSIVLQKFAGPYDKGEYSPSVQKTLYDIQVLTLGQVPEIEDMEISLPNIHYLNIDMSKMGLINKEEVLLPLDNPYGKITGTVKRKLSSRL
modifications: monomethoxy PEG conjugated; Krystexxa Sequence
notes: covalent conjugate of uricase produced by a genetically modified strain of Escherichia coli and monomethoxypoly (ethylene glycol)
[1]
  sUA < 6 mg/dL, n (%): 3 (100%)
  sUA Change from Baseline, Mean (SD): −10.55 (4.625) mg/dL
  sUA Change from Baseline, Median: -9.80 mg/dL
  sUA Observed, Mean (SD): 1.05 (1.305) mg/dL
  sUA Observed, Median: 0.30 mg/dL
[2]
  sUA < 6 mg/dL, %: (100%)
  sUA Change from Baseline, Mean: -12.65 mg/dL
  sUA Change from Baseline, Median: -12.65 mg/dL
  sUA Observed, Mean: 0.30 mg/dL
  sUA Observed, Median: 0.30 mg/dL
[3]
  sUA < 6 mg/dL, n (%): 2 (100%)
  sUA Change from Baseline, Mean (SD): −12.65 (4.031) mg/dL
  sUA Change from Baseline, Median: -12.65 mg/dL
  sUA Observed, Mean (SD): 0.30 (0.000) mg/dL
  sUA Observed, Median: 0.30 mg/dL
[4]
  sUA < 6 mg/dL, %: (100%)
  sUA Change from Baseline, Mean: -10.33 mg/dL
  sUA Change from Baseline, Median: -9.80 mg/dL
  sUA Observed, Mean: 1.60 mg/dL
  sUA Observed, Median: 0.30 mg/dL
[5]
  sUA < 6 mg/dL, n (%): 3 (100%)
  sUA Change from Baseline, Mean (SD): −10.33 (4.922) mg/dL
  sUA Change from Baseline, Median: -9.80 mg/dL
  sUA Observed, Mean (SD): 1.60 (2.252) mg/dL
  sUA Observed, Median: 0.30 mg/dL
[6]
  sUA < 6 mg/dL, %: (100%)
  sUA Change from Baseline, Mean: -12.65 mg/dL
  sUA Change from Baseline, Median: -12.65 mg/dL
  sUA Observed, Mean: 0.30 mg/dL
  sUA Observed, Median: 0.30 mg/dL
[7]
  sUA < 6 mg/dL, n (%): 2 (100%)
  sUA Change from Baseline, Mean (SD): −12.65 (4.031) mg/dL
  sUA Change from Baseline, Median: -12.65 mg/dL
  sUA Observed, Mean (SD): 0.30 (0.000) mg/dL
  sUA Observed, Median: 0.30 mg/dL
[8]
  sUA < 6 mg/dL, %: (100%)
  sUA Change from Baseline, Mean: -10.57 mg/dL
  sUA Change from Baseline, Median: -9.80 mg/dL
  sUA Observed, Mean: 1.37 mg/dL
  sUA Observed, Median: 0.30 mg/dL
[9]
  sUA < 6 mg/dL, n (%): 3 (100%)
  sUA Change from Baseline, Mean (SD): −10.57 (4.598) mg/dL
  sUA Change from Baseline, Median: -9.80 mg/dL
  sUA Observed, Mean (SD): 1.37 (1.848) mg/dL
  sUA Observed, Median: 0.30 mg/dL
[10]
  sUA < 6 mg/dL, %: (100%)
  sUA Change from Baseline, Mean: -12.65 mg/dL
  sUA Change from Baseline, Median: -12.65 mg/dL
  sUA Observed, Mean: 0.30 mg/dL
  sUA Observed, Median: 0.30 mg/dL
[11]
  sUA < 6 mg/dL, n (%): 2 (100%)
  sUA Change from Baseline, Mean (SD): −12.65 (4.031) mg/dL
  sUA Change from Baseline, Median: -12.65 mg/dL
  sUA Observed, Mean (SD): 0.30 (0.000) mg/dL
  sUA Observed, Median: 0.30 mg/dL
[12]
  sUA < 6 mg/dL, %: (100%)
  sUA Change from Baseline, Mean: -12.65 mg/dL
  sUA Change from Baseline, Median: -12.65 mg/dL
  sUA Observed, Mean: 0.30 mg/dL
  sUA Observed, Median: 0.30 mg/dL
Week 52/ET, mITT, n=2
  sUA < 6 mg/dL, n (%): 2 (100%)
  sUA Change from Baseline, Mean (SD): −12.65 (4.031) mg/dL
  sUA Change from Baseline, Median: -12.65 mg/dL
  sUA Observed, Mean (SD): 0.30 (0.000) mg/dL
  sUA Observed, Median: 0.30 mg/dL
